Key:
[1] = target: HCMV protease (Human cytomegalovirus) (UniProt P16753); settings: cited from earlier work
[2] = target: the molecule itself

| Molecule | Kd [1] [µM] | Kd [2] [µM] |
| --- | --- | --- |
| HCMV protease (from UniProt P16753) | 5.8 |  |
| HCMV protease (protein) MTMDEQQSQAVAPVYVGGFLARYDQSPDEAELLLPRDVVEHWLHAQGQGQPSLSVALPLNINHDDTAVVGHVAAMQSVRDGLFCLGCVTSPRFLEIVRRASEKSELVSRGPVSPLQPDKVVEFLSGSYAGLSLSSRRCDDVEAATSLSGSETTPFKHVALCSVGRRRGTLAVYGRDPEWVTQRFPDLTAADRDGLRAQWQRCGSTAVDASGDPFRSDSYGLLGNSVDALYIRERLPKLRYDKQLVGVTERESYVKA |  | ~70 |

From publication PMC13486704 (2026)
